# Reference: publication PMC4414373, “Relevance of glycosylation of S-layer proteins for cell surface properties” (Acta Biomaterialia, 2015)
# Target: the molecule itself
# Assay: atomic force microscopy; S-layer (glyco)protein at 50 ug/mL recrystallized on gold-coated SPR and QCM-D sensor surfaces; lattice imaged in contact mode in a liquid cell under 100 mM NaCl
protein,measurement,value
"recombinant S-layer protein rSgsE(131-903), 130 amino acid N-terminal truncation of SgsE (domain or fragment, UniProt Q8VTF1 131-903, looked up, S-layer protein SgsE of Geobacillus stearothermophilus NRS 2004/3a, residues 131-903; non-glycosylated; calculated molecular weight 82,800 Da; also called recombinantly produced non-glycosylated form of SgsE; source: E. coli BL21 Star (DE3), purified) ATKLDKMRQELKAAVDAKDLKKAEELYHKISYELKTRTVILDRVYGQSTRELLRSTFKADAQALRDSLIYDITVAMKAREAQDAVKAGNLDKAKAALDQVNQYVSKVTDAFKAELQKAAQDAKAAYEAALPPKVESVTAVNAKTLEIKFNKAVDAATVIDNKGTSDTSDDVVKATAITLKAIDDQVPVSTVKASLSDDKKTLKLVVDGAQFFTKRYVVDIKNVKTLDGKDVPAYTTTIDTTDSVRPSVLSFSYADNGLTLKVKFSEPLASVGTVKLYDGTTEISVSPKFTAGDDEMTINLASSSVPVNKDLTLKIFGAVDYNGNVINPNPAELTVKKTTVDITKPVVQSIEAVNTKTVKVTFSEKLLSAPTIKIGGQTASVSVDSTGLVYTATLASALSKGVYAVEVSDYKDLAGNSGDAYTKVVQLKADNTAPKFVSSQVVKINGVEHLVLTFDEEVTTGSNITVVQSSDKYIDENNVLKAVGADLKTTSDNFKLYLPTDGKSKSVALNISSLPKGTYTVTLPNGLVSDLADNPYAERKQITFVRGSDSLTTKPALDKDYDSNGVKADNNNELVFAFTQNLDASALNLSNFNINGLTVTKAVFDGDTKHIRVTLAPGANTWTGTHVITISNIKNTSGLVMDTVTVNEYMKENVAPTFTATLTSADVIRVDFSEPVANATISRALSANNFIVKVDGNVVTVSNVYEDNNATNLVQGSKGYKTVYLKLQSPVTDLSKPITLSATDIVDVNQTGAITDNNVVGNNVSATVVNVAK",binding result,binds
